For assay [1], the target named is Recombinant human FAP (R&D systems, #3715-SE) (human, UniProt Q12884 26-760). In words: cell-based or functional assay.
For assay [2], the target named is T1, fibroblast activation protein (FAP) on FAP-expressing human WI-38 fibroblasts (human, UniProt Q12884 1-760).
T1 construct: Endogenous FAP on WI-38 cells (ECACC) in the FACS assay; also called human FAP
In words: competitive FACS on WI-38 cells vs 3 nM Cy5-labeled probe; A = pIC50 >7.0. Here is the method: FAP-expressing human WI-38 fibroblasts (ECACC) were cultured in EMEM including 15% fetal bovine serum, 2 mM L-Glutamine and 1% Non-essential amino acids. Cells were detached with Accutase (Biolegend, #BLD-423201) and washed in FACS buffer (PBS including 1% FBS). Cells were diluted in FACS buffer to a final concentration of 100.000 cells per ml and 200 μl of the cell suspension are transferred to a u-shaped non-binding 96-well plate (Greiner). […] Cell were washed twice with FACS buffer and resuspended in 200 μl FACS buffer. Cells were analyzed in an Attune NxT flow cytometer. Median fluorescence intensities (Cy5 channel) was calculated by Attune NxT software and plotted against peptide concentrations. Four parameter logistic (4PL) curve fitting and pIC50 calculations were performed using ActivityBase software.

*1 amine or outer side, *2 acyl side, *3 side chain or, on linkers, in order; H or OH if unused. Bridges are numbered along the chain shown (N, C = ends). Primed or numbered codes have the meaning given here. [ ]: non-standard residue; d: D form. The star is where a group is joined. mli = maleimide cyclization element: 3,4-maleimide inserted symmetrically, forming a vinyl thioether with each Cys sulfur; mli(Me)″ = N-methyl maleimide cyclization element, vinyl thioethers with both Cys, CN1C(=O)C([*:1])=C([*:2])C1=O; mli(DOTA-Eda) = 3,4-N-(DOTA-aminoethyl)-maleimide bridging two Cys S atoms as vinyl thioethers; Ttds = 1,13-diamino-4,7,10-trioxatridecan-succinamic acid, NCCCOCCOCCOCCCNC(=O)CCC(=O)*; mli(DOTA-Ttd) = 3,4-N-(DOTA-Ttd)-maleimide bridging two Cys S atoms as vinyl thioethers; mli(NODAGA-Ttd) = mli with NODAGA attached to the maleimide nitrogen via a Ttd linker; mli(N4Ac-Ttd) = mli with N4Ac attached to the maleimide nitrogen via a Ttd linker; mli(Me) = N-methyl maleimide cyclization element, CN1C(=O)C([*:1])=C([*:2])C1=O; N4Ac = 6-carboxy-1,4,8,11-tetraazaundecane, NCCNCC(CNCCN)C(=O)*; Buur = n-butylaminocarbonyl blocking group, CCCCNC(=O)*; DOTA = O=C(O)CN1CCN(CC(=O)O)CCN(CC(=O)*)CCN(CC(=O)O)CC1; NODAGA = O=C(O)CN1CCN(CC(=O)O)CCN(C(CCC(=O)*)C(=O)O)CC1; O2Oc = 3,6-dioxaoctanoic acid; Nle = CCCC[C@H](N)C(=O)O; Hexanoyl = CCCCCC(=O)* Some results are limits rather than exact numbers.

B1: compound Hex-[Cys(mli(DOTA-Eda))-Pro-Pro-Thr-Gln-Phe-Cys]-Asp-NH2 (2018) (peptide)
peptide: Hexanoyl-CPPTQFCD-NH2
modifications: linker 1-7 via mli(DOTA-Eda)
As to B1, in assay [1], the “pIC50 Category (Activity), FRET-based FAP protease activity assay” value (shortened to “pIC50 Category (Activity)”) was more than 7 pIC50. The “pIC50 Category (FACS)” value in assay [2] is more than 7 pIC50.

B2: compound Hex-[Cys(mli)-Pro-Pro-Thr-Gln-Phe-Cys]-Asp-Lys(NODAGA)-NH2 (2023) (peptide)
peptide: Hexanoyl-CPPTQFCDK(NODAGA)-NH2
modifications: linker 1-7 via mli
As for B2, the “pIC50 Category (Activity)” value in assay [1] was more than 7 pIC50. Further, the “pIC50 Category (FACS)” value in assay [2] was more than 7 pIC50.

B3: compound Hex-[Cys(mli(NODAGA-Ttd))-Pro-Pro-Thr-Gln-Phe-Cys]-Asp-NH2 (2025) (peptide)
peptide: Hexanoyl-CPPTQFCD-NH2
modifications: linker 1-7 via mli(NODAGA-Ttd)
B3: the “pIC50 Category (Activity)” value in assay [1] is more than 7 pIC50. Also, the “pIC50 Category (FACS)” value in assay [2] was more than 7 pIC50.

B4: compound Hex-[Cys(mli(DOTA-Ttd))-Pro-Pro-Thr-Gln-Phe-Cys]-Asp-NH2 (2017) (peptide)
peptide: Hexanoyl-CPPTQFCD-NH2
modifications: linker 1-7 via mli(DOTA-Ttd)
As to B4, the “pIC50 Category (Activity)” value in assay [1] is more than 7 pIC50. Further, in assay [2], the “pIC50 Category (FACS)” value was more than 7 pIC50.

B5: compound Hex-[Cys(mli(Me))-Pro-Pro-Thr-Gln-Phe-Cys]-Asp-Lys(DOTA)-NH2 (2015) (peptide)
peptide: Hexanoyl-CPPTQFCDK(DOTA)-NH2
modifications: linker 1-7 via mli(Me)
SMILES: CCCCCC(=O)N[C@H]1CSC2=C(SC[C@@H](C(=O)N[C@@H](CC(=O)O)C(=O)N[C@@H](CCCCNC(=O)CN3CCN(CC(=O)O)CCN(CC(=O)O)CCN(CC(=O)O)CC3)C(N)=O)NC(=O)[C@H](Cc3ccccc3)NC(=O)[C@H](CCC(N)=O)NC(=O)[C@H]([C@@H](C)O)NC(=O)[C@@H]3CCCN3C(=O)[C@@H]3CCCN3C1=O)C(=O)N(C)C2=O
In the case of B5, the “pIC50 Category (Activity)” value in assay [1] is more than 7 pIC50. Besides, the “pIC50 Category (FACS)” value in assay [2] is more than 7 pIC50.

B6: compound DOTA-Ttds-Nle-[Cys-Pro-Pro-Thr-Glu-Phe-Cys]-Asp-His-Phe-Arg-Asp-NH2 (1006) (peptide)
peptide: {DOTA-Ttds}-[Nle]CPPTEFCDHFRD-NH2
modifications: disulfide 2-8
notes: By the running order it belongs to 1006
On to B6, for which the “pIC50 Category (Activity)” value in assay [1] is more than 7 pIC50. Further, the “pIC50 Category (FACS)” value in assay [2] was more than 7 pIC50.

B7: compound DOTA-O2Oc-Nle-[Cys-Pro-Pro-Thr-Glu-Phe-Cys]-Asp-His-Phe-Arg-Asp-NH2 (1005) (peptide)
peptide: {DOTA-O2Oc}-[Nle]CPPTEFCDHFRD-NH2
modifications: disulfide 2-8
notes: By the running order it belongs to 1005
B7: in assay [1], the “pIC50 Category (Activity)” value was more than 7 pIC50. For the same molecule, the “pIC50 Category (FACS)” value in assay [2] is more than 7 pIC50.

B8: compound Hex-[Cys(mli)-Pro-Pro-Thr-Gln-Phe-Cys]-Asp-Lys(N4Ac)-NH2 (2024) (peptide)
peptide: Hexanoyl-CPPTQFCDK(N4Ac)-NH2
modifications: linker 1-7 via mli
For B8, the “pIC50 Category (Activity)” value in assay [1] was more than 7 pIC50. Besides, the “pIC50 Category (FACS)” value in assay [2] is more than 7 pIC50.

B9: compound Buur-[Cys(mli)-Pro-Pro-Thr-Gln-Phe-Cys]-Asp-Lys(DOTA)-NH2 (2014) (peptide)
peptide: Buur-CPPTQFCDK(DOTA)-NH2
modifications: linker 1-7 via mli
On to B9, for which, in assay [1], the “pIC50 Category (Activity)” value is more than 7 pIC50. For the same molecule, the “pIC50 Category (FACS)” value in assay [2] was more than 7 pIC50.

B10: compound DOTA-Ttds-Nle-[Cys(mli(Me))-Pro-Pro-Thr-Gln-Phe-Cys]-Asp-NH2 (2016) (peptide)
peptide: {DOTA-Ttds}-[Nle]CPPTQFCD-NH2
modifications: linker 2-8 via mli(Me)″
On to B10, for which, in assay [1], the “pIC50 Category (Activity)” value was more than 7 pIC50. The “pIC50 Category (FACS)” value in assay [2] is more than 7 pIC50.

B11: compound Hex-[Cys(mli(N4Ac-Ttd))-Pro-Pro-Thr-Gln-Phe-Cys]-Asp-NH2 (2026) (peptide)
peptide: Hexanoyl-CPPTQFCD-NH2
modifications: linker 1-7 via mli(N4Ac-Ttd)
Consider B11, for which the “pIC50 Category (Activity)” value in assay [1] is more than 7 pIC50. The “pIC50 Category (FACS)” value in assay [2] is more than 7 pIC50.

B12: compound DOTA-Ttds-Nle-[Cys-Pro-Pro-Thr-Gln-Phe-Cys]-Asp-NH2 (1008) (peptide)
peptide: {DOTA-Ttds}-[Nle]CPPTQFCD-NH2
modifications: disulfide 2-8
With B12, the “pIC50 Category (Activity)” value in assay [1] is more than 7 pIC50. Further, the “pIC50 Category (FACS)” value in assay [2] is more than 7 pIC50.

Values taken from US20240115745A1 (3B PHARMACEUTICALS, published 2024).
